Data set [1] concerns rabbit IgG (anti-PD-L1 rabbit monoclonal antibody clone SP142) (Oryctolagus cuniculus). The note with it: 5' SH (reduced disulfide), coupled to maleimide-PEG nanoparticle; secondary staining of SP142 rabbit mAb on NCI-H446 section; 0.05 nM aptamer-nanoparticle, PBS 1% BSA, RT 3 h.
Data set [2] concerns the target Recombinant human HER2 protein (E27-11G-10/Signal Chem) (human) (UniProt P04626). The experiment in a line: sandwich ELISA: HER2 captured by antibody 6C2, detected with 0.67 nM antibody-coated PID-T particles, before lyophilizing. On the technique in general: ELISA stands for enzyme-linked immunosorbent assay.
Data set [3] has the same target. Description: sandwich ELISA: HER2 captured by antibody 6C2, detected with 0.67 nM antibody-coated PID-T particles, after lyophilizing.
In data set [4] the target is Recombinant human PDL1 protein (BioVision/7429-50) (human) (UniProt Q9NZQ7). Description: sandwich ELISA: PDL1 captured by antibody 28-8, detected with antibody-coated PID particles, before lyophilizing.
Data set [5] has the same target. The experiment in a line: sandwich ELISA: PDL1 captured by antibody 28-8, detected with antibody-coated PID particles, after lyophilizing.

UniProt Q9NZQ7, sequence (Q9NZQ7 19-238 limits assumed): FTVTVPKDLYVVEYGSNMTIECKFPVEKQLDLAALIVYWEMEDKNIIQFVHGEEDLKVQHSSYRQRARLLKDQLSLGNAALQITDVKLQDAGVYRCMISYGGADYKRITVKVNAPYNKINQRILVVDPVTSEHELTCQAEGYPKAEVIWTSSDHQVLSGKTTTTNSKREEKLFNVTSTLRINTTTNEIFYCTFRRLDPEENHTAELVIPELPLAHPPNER

In turn, “GGGAGAAUUCCGACCAGAAGUUCGAUACGCCGUGGGGUGACGUUGGCUACCCUUUCCUCUCUCCUCCUUCUUCU [rabbit IgG RNA aptamer (74 mer)]” came in with a binding (bright spots per cell) in data set [1] of 605.
Consider “anti-HER2-Fab antibody prepared from the anti-HER2-whole antibody (Abcam EP1045Y), bound to the surface of PID-T”, for which, in data set [2], the Fluorescence intensity (PFU), before lyophilizing amounted to 41000 PFU. In addition, the Fluorescence intensity (PFU), after lyophilizing in data set [3] was determined as 18000 PFU.
For “anti-HER2-whole antibody (Abcam, product code EP1045Y), bound to the surface of PID-T” the same measures were 33000 PFU and 15000 PFU.
On to “anti-PDL1-recombinant antibody (clone E1L3N/Cell Signaling Technology), bound to the surface of PID-P”, for which, in data set [4], the Fluorescence intensity (PFU), before lyophilizing is 17000 PFU. Moreover, the Fluorescence intensity (PFU), after lyophilizing in data set [5] was determined as 5500 PFU.

B1: anti-HER2-VHH antibody (SH group-containing VHH antibody that recognizes HER2 antigen), bound to the surface of PID-T (VHH)
VHH: EVQLVESGGGLVQAGGSLRLSCAASGITFSINTMGWYRQAPGKQRELVALISSIGDTYYADSVKGRFTISRDNAKNTVYLQMNSLKPEDTAVYYCKRFRTAQGTDYWGQGTQVTVSS
modifications: C-terminal cysteine of the linker reduced with DTT to a free SH group and coupled to the maleimide group of TAMRA-encapsulating silica nanoparticles (PID-T)
For B1, in data set [2], the Fluorescence intensity (PFU), before lyophilizing amounted to 51000 PFU. The Fluorescence intensity (PFU), after lyophilizing in data set [3] came to 49000 PFU.

The record behind these values is patent US20220107306A1.
